Laboratory results taken from patent US20230134571A1 (INTERNATIONAL AIDS VACCINE INITIATIVE, published 2023).
Positions count from the first letter of the chain named.

B1: ePGDM9 (antibody, V domains shown)
VH: QAQLVQSGPEVRKPGTSVKVSCKNPGNTLTTYDLHWVRQVPGQGLQWMGWISHEGDKKVIVERFKAKVTIDWDRSTNTAYLQLSGLTSEDTAVYYCAKGSKHRLRDYALYDEDGALNWAVDVDYLANLEFWGQGTAVTVSS
VL: DIVLTQSPLSLSVTPGESASISCKSSQSLIHGDRNNYLAWYVQKPGRSPQLLIDLASERASGVPDRFSGSGSRKDFTLKISRVETEDVGTYYCMQGRESPWTFGQGTKVDIK
B2: ePGDM13 (antibody, V domains shown)
VH: B1 VH
VL: B1 VL with Q27H, I30Q, I53L, R73E
B3: ePGDM5 (antibody, V domains shown)
VH: B1 VH
VL: B1 VL with I2F, S26D, Q27H, I30Q, S81D, T85A
B4: PGDM1400 (antibody, V domains shown)
VH: B1 VH with A2V, Q3H, V5T, N24A, T30K, Q39S, E89G, E112D, A126S
VL: B1 VL with I2F, L9H, Q27H, D54Y, E58S, R73D

Each binder was assayed against HIV Env, isolate 1056_10_TA11_1826 (HIV) (assay: cell-based or functional assay).

Binder | IC80 (µg/ml) with constrains [µg/mL]
B1 | 3.61
B2 | 6.03
B3 | 3.57
B4 | 13.5

These binders were tested against HIV Env, isolate TRJO4551.58 (HIV) (assay: cell-based or functional assay).

Binder | IC80 (µg/ml) with constrains [µg/mL]
B1 | > 100
B2 | > 100
B3 | > 100
B4 | > 100

These binders were tested against HIV Env, isolate CNE19 (HIV) (assay: cell-based or functional assay).

Binder | IC80 (µg/ml) with constrains [µg/mL]
B1 | 0.012
B2 | 0.013
B3 | 0.012
B4 | 0.019

These binders were tested against HIV Env, isolate CNE30 (HIV) (assay: cell-based or functional assay).

Binder | IC80 (µg/ml) with constrains [µg/mL]
B1 | > 100
B2 | > 100
B3 | > 100
B4 | > 100

What follows are binders tested against HIV Env, isolate 246FC1G (HIV) (assay: cell-based or functional assay).

Binder | IC80 (µg/ml) with constrains [µg/mL]
B1 | > 100
B2 | > 100
B3 | > 100
B4 | > 100

These binders were tested against HIV Env, isolate 7030102001E5(Rev-) (HIV) (assay: cell-based or functional assay).

Binder | IC80 (µg/ml) with constrains [µg/mL]
B1 | > 100
B2 | > 100
B3 | > 100
B4 | > 100

What follows are binders tested against HIV Env, isolate Ce2010_F5 (HIV) (assay: cell-based or functional assay).

Binder | IC80 (µg/ml) with constrains [µg/mL]
B1 | > 100
B2 | > 100
B3 | > 100
B4 | > 100

These binders were tested against HIV Env, isolate Ce703010054_2A2 (HIV) (assay: cell-based or functional assay).

Binder | IC80 (µg/ml) with constrains [µg/mL]
B1 | 0.032
B2 | 0.031
B3 | 0.034
B4 | 0.057

Each binder was assayed against HIV Env, isolate Ce704809221_1B3 (HIV) (assay: cell-based or functional assay).

Binder | IC80 (µg/ml) with constrains [µg/mL]
B1 | 0.539
B2 | 1.36
B3 | 0.749
B4 | 1.28

Each binder was assayed against HIV Env, isolate HIV-0013095-2.11 (HIV) (assay: cell-based or functional assay).

Binder | IC80 (µg/ml) with constrains [µg/mL]
B1 | > 100
B2 | > 100
B3 | > 100
B4 | > 100

These binders were tested against HIV Env, isolate ZM214M.PL15 (HIV) (assay: cell-based or functional assay).

Binder | IC80 (µg/ml) with constrains [µg/mL]
B1 | > 100
B2 | > 100
B3 | > 100
B4 | > 100

The binders below were run against HIV Env, isolate ZM233M.PB6 (HIV) (assay: cell-based or functional assay).

Binder | IC80 (µg/ml) with constrains [µg/mL]
B1 | 0.007
B2 | 0.006
B3 | 0.007
B4 | 0.007

These binders were tested against HIV Env, isolate 6480.v4.c25 (HIV) (assay: cell-based or functional assay).

Binder | IC80 (µg/ml) with constrains [µg/mL]
B1 | > 100
B2 | > 100
B3 | > 100
B4 | > 100

What follows are binders tested against HIV Env, isolate 231965.c01 (HIV) (assay: cell-based or functional assay).

Binder | IC80 (µg/ml) with constrains [µg/mL]
B1 | 0.037
B2 | 0.058
B3 | 0.035
B4 | 0.242

What follows are binders tested against HIV Env, isolate 3016.v5.c45 (HIV) (assay: cell-based or functional assay).

Binder | IC80 (µg/ml) with constrains [µg/mL]
B1 | > 100
B2 | > 100
B3 | > 100
B4 | > 100

These binders were tested against HIV Env, isolate P1981_C5_3 (HIV) (assay: cell-based or functional assay).

Binder | IC80 (µg/ml) with constrains [µg/mL]
B1 | 0.585
B2 | 1.28
B3 | 1.18
B4 | 75.6
